Measured values as given in patent US20210292414A1 (H LUNDBECK A S, published 2021).
Numbering of substitutions follows the chain as printed.

B1: IgG1-6003-910 (antibody, V domains shown)
VH: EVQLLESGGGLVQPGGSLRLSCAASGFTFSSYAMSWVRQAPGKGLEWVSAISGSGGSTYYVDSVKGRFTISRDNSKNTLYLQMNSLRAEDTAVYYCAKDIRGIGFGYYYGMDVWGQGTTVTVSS
VL: EIVLTQSPATLSLSPGERATLSCRASQSVSSYLVWYQQKPGQAPRLLIYDASNRATGIPARFSGSGSGTDFTLTISSLEPEDFAVYYCQQRSNWPPTFGQGTRLEIK
notes: also called Antibody 6003-910
B2: IgG1-6003-972 (antibody, V domains shown)
VH: QVQLVESGGGVVQPGRSLRLSCAASGFTFSDYAMHWVRRAPGKGLEWVVVISYDGSNKYYADSVKGRFTISRDNSKNTLYLQMNSLRAEDTAVYYCARDPSGGWYFDLWGRGTLVTVSS
VL: B1 VL with V34A, V85L, N93H, P96R, R103K, L104V
notes: also called Antibody 6003-972
B3: Antibody 6003-799 (antibody, human IgG1, V domains shown)
VH: QVQLVESGGGVVQPGRSLRLSCAASGFTFSSYGMHWVRQAPGKGLEWVTVISYDGSNKYYADSVKGRFTISRDNSKNTLYLQMNSLRAEDTAVYYCAKLTGDAFDIWGQGTMVTVSS
VL: EIVLTQSPATLSLSPGERATLSCRASQSVSSYLVWYQQKPGQAPRLLIYHASNRATGIPARFSGSGSGTDFTLTISSLEPEDFAVYYCQQRSNWPRITFGQGTRLEIK
B4: Antibody 6003-886 (antibody, human IgG1, V domains shown)
VH: QVQLVQSGAEVKKPGASVKVSCKASGYTFTKYGISWVRQAPGQGLEWMGWISAYNGNTNYAQKLQDRVTMTTDTFTSTAYMELRSLRSDDTAVYFCARDGPLTGDFTFYGMDVWGQGTTVTVSS
VL: B3 VL with V34A, H50D, R96P, I97F, Q101P, R104K, L105V, E106D
B5: Antibody 6003-822 (antibody, human IgG1, V domains shown)
VH: EVQLLESGGGLVQPGESLTLSCAASGFTLSSYAMSWVRQAPGKGLEWVSSISGRLGTTYYAASVKGRFTISRDNSKNTLYLQMNSLRAEDTAIYSCAKAPSDAFDIWGQGTMVTVSS
VL: B3 VL with V34A, H50D, R96I, I97F, Q101P, R104K, L105V, E106D
B6: Antibody 6003-900 (antibody, human IgG1, V domains shown)
VH: EVQLVESGGGLVKPGGSLRLSCAASGFTFSSYSMNWVRQAPGKGLEWVSSISSSSSYIYYADSVKGRFTISRDNAKNSLYLQMNSLRAEDTAVYYCARRGSGSYDAFDIWGQGTMVTVSS
VL: EIVLTQSPDFQSVTPKEKVTITCRASQSIGYSLHWYQQKPDQSPKLLIKYASQSFSGVPSRFSGSGSGTDFTLTINSLEAEDAAAYYCHQSSSLPLTFGGGTKVEIK
notes: also called antibody 900; Sortilin human antibody 900

Legend:
Test in all cases: BLI (Octet384RED)
hRim = biological target: T1, hRim
T1 chimeric human/tetraodon Sortilin extracellular region, BAP tag: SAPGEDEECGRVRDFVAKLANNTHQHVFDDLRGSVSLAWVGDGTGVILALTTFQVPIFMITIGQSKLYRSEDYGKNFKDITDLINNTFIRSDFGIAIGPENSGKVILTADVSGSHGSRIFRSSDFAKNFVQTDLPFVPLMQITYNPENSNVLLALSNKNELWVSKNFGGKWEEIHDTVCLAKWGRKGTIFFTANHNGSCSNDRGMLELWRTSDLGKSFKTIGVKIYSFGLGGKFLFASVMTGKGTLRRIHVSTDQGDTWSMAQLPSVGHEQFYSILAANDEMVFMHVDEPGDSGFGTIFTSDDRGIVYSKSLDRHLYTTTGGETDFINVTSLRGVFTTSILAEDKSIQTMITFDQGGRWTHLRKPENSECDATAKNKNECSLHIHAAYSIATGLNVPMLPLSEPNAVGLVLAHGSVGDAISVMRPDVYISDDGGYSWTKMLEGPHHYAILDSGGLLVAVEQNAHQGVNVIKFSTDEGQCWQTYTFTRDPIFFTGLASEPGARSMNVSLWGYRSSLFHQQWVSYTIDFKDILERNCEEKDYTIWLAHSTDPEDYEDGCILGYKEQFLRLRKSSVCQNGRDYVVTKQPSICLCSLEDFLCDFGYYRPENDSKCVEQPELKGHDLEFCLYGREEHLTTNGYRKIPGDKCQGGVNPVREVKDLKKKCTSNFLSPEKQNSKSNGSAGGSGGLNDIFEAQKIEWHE

[1] = biological target: T2, Sortilin SORTECDBAP_tetra (tetraodon)
T2 construct: Fully tetraodon Sortilin ECD with BAP tag; also called tetraodon; tetraodon Sortilin
T2 chain: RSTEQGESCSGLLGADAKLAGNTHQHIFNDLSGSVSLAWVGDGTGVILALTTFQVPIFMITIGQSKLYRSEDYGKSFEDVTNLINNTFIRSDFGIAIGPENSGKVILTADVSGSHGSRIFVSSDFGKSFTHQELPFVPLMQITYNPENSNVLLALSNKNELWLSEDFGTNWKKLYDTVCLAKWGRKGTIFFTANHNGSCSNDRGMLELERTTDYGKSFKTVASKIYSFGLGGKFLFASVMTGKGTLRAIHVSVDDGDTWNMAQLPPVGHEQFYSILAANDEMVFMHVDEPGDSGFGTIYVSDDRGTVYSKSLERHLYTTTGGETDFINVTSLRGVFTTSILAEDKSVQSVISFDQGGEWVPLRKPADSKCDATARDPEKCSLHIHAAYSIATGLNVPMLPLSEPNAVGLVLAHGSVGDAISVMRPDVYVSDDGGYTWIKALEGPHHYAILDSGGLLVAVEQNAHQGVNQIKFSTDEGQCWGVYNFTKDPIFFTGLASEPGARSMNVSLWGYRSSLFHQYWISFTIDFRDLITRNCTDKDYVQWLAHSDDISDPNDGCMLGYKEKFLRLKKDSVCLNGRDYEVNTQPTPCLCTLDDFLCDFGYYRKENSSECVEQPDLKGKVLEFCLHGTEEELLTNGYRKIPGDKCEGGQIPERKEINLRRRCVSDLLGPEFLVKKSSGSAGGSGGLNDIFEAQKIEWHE

hBack = biological target: T3, hBack
T3 chimeric human/tetraodon Sortilin extracellular region, BAP tag: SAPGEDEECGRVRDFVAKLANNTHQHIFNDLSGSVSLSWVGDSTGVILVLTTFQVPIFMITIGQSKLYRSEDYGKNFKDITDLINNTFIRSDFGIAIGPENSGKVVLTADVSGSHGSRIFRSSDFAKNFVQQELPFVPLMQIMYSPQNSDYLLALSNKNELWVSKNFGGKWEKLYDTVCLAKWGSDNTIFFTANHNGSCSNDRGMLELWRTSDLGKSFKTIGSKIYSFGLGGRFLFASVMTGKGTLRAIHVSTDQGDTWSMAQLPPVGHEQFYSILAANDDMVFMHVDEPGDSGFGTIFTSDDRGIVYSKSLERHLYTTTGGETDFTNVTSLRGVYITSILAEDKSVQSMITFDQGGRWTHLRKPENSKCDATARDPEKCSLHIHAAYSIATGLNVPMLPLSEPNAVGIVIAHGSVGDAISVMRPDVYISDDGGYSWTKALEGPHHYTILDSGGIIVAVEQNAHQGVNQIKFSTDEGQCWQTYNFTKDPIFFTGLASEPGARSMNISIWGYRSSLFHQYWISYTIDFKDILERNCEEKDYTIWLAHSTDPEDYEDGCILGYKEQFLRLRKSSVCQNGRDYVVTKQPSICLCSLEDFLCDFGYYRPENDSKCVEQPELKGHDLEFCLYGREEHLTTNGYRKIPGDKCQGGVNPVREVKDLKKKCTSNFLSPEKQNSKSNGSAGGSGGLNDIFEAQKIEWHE

[2] = biological target: T4, Sortilin SORTECDBAP_hB12390 (human/tetraodon chimera)
T4 construct: Shuffle construct: chimeric human/tetraodon Sortilin ECD with BAP tag
T4 chain: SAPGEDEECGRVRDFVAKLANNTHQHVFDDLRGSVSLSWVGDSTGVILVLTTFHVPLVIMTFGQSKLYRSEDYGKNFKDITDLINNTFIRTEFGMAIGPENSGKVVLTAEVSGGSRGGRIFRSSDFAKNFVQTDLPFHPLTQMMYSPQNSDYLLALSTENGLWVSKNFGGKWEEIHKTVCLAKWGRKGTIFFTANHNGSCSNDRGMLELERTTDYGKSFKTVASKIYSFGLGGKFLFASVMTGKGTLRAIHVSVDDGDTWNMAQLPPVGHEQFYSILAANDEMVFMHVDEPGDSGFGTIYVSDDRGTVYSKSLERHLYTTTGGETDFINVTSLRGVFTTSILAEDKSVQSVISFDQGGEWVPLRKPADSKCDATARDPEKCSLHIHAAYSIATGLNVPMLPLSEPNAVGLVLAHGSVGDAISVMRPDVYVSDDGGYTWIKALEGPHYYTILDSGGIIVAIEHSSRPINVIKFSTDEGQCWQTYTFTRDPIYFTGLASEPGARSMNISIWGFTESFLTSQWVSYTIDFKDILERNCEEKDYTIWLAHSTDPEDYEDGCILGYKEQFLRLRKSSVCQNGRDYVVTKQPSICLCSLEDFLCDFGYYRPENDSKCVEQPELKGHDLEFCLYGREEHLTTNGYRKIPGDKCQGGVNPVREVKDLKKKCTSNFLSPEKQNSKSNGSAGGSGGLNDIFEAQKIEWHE

Binder	EC50 (hRim) [ng/mL]	binding result [1]	EC50 (hBack) [ng/mL]	EC50 [2] [ng/mL]
B1	2.59	no binding	1.54	1.84
B2	3.08	no binding	1.49	2.36
B3	5.02	no binding	3.2	3.36
B4	4.42	no binding	2.72	3.36
B5	2.31	no binding	2.59	1.89
B6	1.26	no binding	1.16	1.06
